Source: publication PMC3963902, “Esterase LpEst1 from Lactobacillus plantarum: A Novel and Atypical Member of the αβ Hydrolase Superfamily of Enzymes” (PLoS ONE, 2014)

Assays:
[1] = substrate: CCCC(=O)Oc1ccc([N+](=O)[O-])cc1; experiment: spectrophotometric p-nitrophenol release; type: biochemical, Lactiplantibacillus plantarum; settings: 50 mM sodium phosphate, pH 7.0, 30 °C
Excerpt: (§1) spectrophotometric p-nitrophenol release on LpEst1

[2] = substrate: CC(=O)Oc1ccc([N+](=O)[O-])cc1; experiment: spectrophotometric p-nitrophenol release; type: biochemical, Lactiplantibacillus plantarum; settings: 50 mM sodium phosphate, pH 7.0, 30 °C
Excerpt: as §1

B1: LpEst1 (Lactiplantibacillus plantarum) (protein)
chain: MPTINSIQTTVNGVVKIVKPFNNDIAGEQFDPHVLQTLTAFKQPAILENDLAALRSGSLTPAIADPVGDAVTVQSRNITALNRTVSVEWLTPQNVINHTVLVYFHGGAFYGGVPGNNTVLLKLVAAKSHCEILNVDYSLAPEAPAPAGILDGLAIFQYLEQRDAETMITVAGDSAGANVIMAATNLNQQLGSNRINQQLLLYPVTAPNADHAGPLWDLAAFPIIDSQRAILTNYHDLFRQLDSIMTDYYVPENFDSHSPLISPLHQENFTMTPPTTIMVGEFDPFRPQAWAYAQRLAAADTATTFIQYQGLNHAFAPLVDQYWQSQDVAQVMAAALI
notes: homodimer
Question: For B1, which Km [1] is on record?
Answer: 200 ± 100 µM

Question: What about the Vmax [1] of the same protein?
Answer: 8 µmol/min/mg

Question: What about the kcat [1] of the same protein?
Answer: 4.4 ± 0.3 s⁻¹

Question: What about the Km [2] of the same protein?
Answer: 380 ± 50 µM

Question: And the Vmax [2]?
Answer: 75 µmol/min/mg

Question: And the kcat [2]?
Answer: 40.4 ± 2 s⁻¹
